The values that follow are results of earlier work, collected in PMC3792554.

As usually defined, the Kd is a measure of binding affinity in units of concentration.

In the data set the target is IL-18 (Homo sapiens) (UniProt Q14116).
Sequence of IL-18 (Homo sapiens) (Q14116 37-193): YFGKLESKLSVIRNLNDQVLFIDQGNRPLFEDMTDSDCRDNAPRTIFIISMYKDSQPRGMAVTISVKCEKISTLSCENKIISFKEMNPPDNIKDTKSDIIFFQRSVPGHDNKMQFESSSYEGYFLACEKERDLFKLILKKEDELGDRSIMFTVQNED

Sequence of IL-18BP (O95998 31-194): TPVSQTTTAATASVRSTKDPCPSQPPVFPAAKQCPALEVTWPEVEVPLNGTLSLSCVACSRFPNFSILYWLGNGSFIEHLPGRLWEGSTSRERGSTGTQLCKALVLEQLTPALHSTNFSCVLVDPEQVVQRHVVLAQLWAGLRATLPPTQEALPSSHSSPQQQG

As for IL-18BP (from UniProt O95998), the Kd was 0.4 nM.
